Article PMC9437721, “Identification and characterization of two Isatis indigotica O-methyltransferases methylating C-glycosylflavonoids” (Horticulture Research, 2022)

Assays:
[1] = substrate: O=c1cc(-c2ccc(O)c(O)c2)oc2cc(O)c([C@@H]3O[C@H](CO)[C@@H](O)[C@H](O)[C@H]3O)c(O)c12; assay: O-methyltransferase assay, UPLC, Michaelis-Menten fit; format: biochemical, Isatis tinctoria; details: 480 μM SAM, Tris-HCl pH 8.0, 45 °C
Source text: (§1) O-methyltransferase assay, UPLC, Michaelis-Menten fit on IiOMT1

[2] = substrate: O=c1cc(-c2ccc(O)c(O)c2)oc2cc(O)cc(O)c12; assay: as above; format: biochemical, Isatis tinctoria; details: 480 μM SAM, Tris-HCl pH 8.0, 45 °C
Source text: as §1

B1: IiOMT1 (Isatis tinctoria) (protein)
chain: MATTTTEATKTSTNGEDKQSQNLRHQEVGHKSLLQSDDLYQYILETSVYPREPESMKELREVTAKHPWNIMTTSADEGQFLNMLIKLINAKNTMEIGVYTGYSLLATALALPEDGKILAMDVNRENYELGLPIIEKAGVAHKIDFREGPALPVLDQLVADEKNHGTYDFIFVDADKDNYINYHKRLIDLVKVGGVIGYDNTLWNGSVVAAPDAPMRKYVRYYRDFVLELNKALAADPRIEICMLPVGDGITICRRIN
notes: N-terminal His6-SUMO tag kept (pE-SUMO), E. coli Rosetta (DE3), Ni-NTA
[1]
  Km: 75.56 ± 8.21 µM
  kcat: 0.304 s⁻¹
  kcat/Km: 4040 M⁻¹ s⁻¹
[2]
  Km: 113.5 ± 10.41 µM
  kcat: 0.413 s⁻¹
  kcat/Km: 3650 M⁻¹ s⁻¹
